In paper PMC8533776:

Biological target: enhanced green fluorescent protein (EGFP) [GFP: P42212]
Test: ELISA; EGFP coated at 100 ng/well in PBS overnight at 4 °C, blocked with 3% BSA; threefold serial dilutions of the binders, 37 °C for 1.5 h; detection by HRP-conjugated anti-Flag antibody, ABTS, OD405

- EC50: 0.63 nM
Substance: αEGFP TRIMbody (RBCC-LaG16-LaG2)
